According to US20160264684A1, “GLYCAN-INTERACTING COMPOUNDS AND METHODS OF USE” (SIAMAB THERAPEUTICS, INC., priority 2013, published 2016):

How the values were obtained:
Assay type in all cases: binding
[1] = system: STn on bovine submaxillary mucin (BSM); assay: Anti-STn BSM ELISA
Method: Anti-STn serum titer is determined using a murine anti-STn bovine submaxillary mucin (BSM) ELISA together with serum profiles observed by glycan microarray. 96-well plates are coated with 1 μg/well of BSM and incubated overnight at 4° C. O-acetylation of BSM antigen is removed by treating wells with 0.1 M sodium hydroxide. Specific binding to STn is determined by treatment of wells with sodium periodate. Periodate treatment destroys the C6 side chain of sialic acid; therefore antibodies raised against STn should not bind to periodate-treated wells. Wells are blocked with PBS 1% ovalbumin (OVA). Serum samples to be assayed are serially diluted in PBS 1% OVA. A commercially available mouse anti-STn monoclonal antibody, 3F1 (SBH Sciences, Natick, Mass.) is used as a positive control. This antibody is also serially diluted in PBS with 1% OVA. A pool of serum from naïve wild type mice is used for the preparation of negative control samples. Detection of anti-STn antibodies present in serum is determined using an HRP-conjugated polyclonal goat anti-mouse IgG antibody (Jackson Immunoresearch, West Grove, Pa.). The reaction is stopped by addition of sulfuric acid (1.6 M). Optical densities are measured at 490 nm using a Spectramax microplate reader (Molecular Devices, Sunnyvale, Calif.). The serum titer is obtained by comparison of OD values with a cutoff value calculated as two standard deviations above the mean of optical density values of the negative control. […]
Binding affinities of 18D2 and 18C7 to STn were compared to commercially available anti-STn antibodies using the BSM ELISA assay described in Example 2. […] Antibody binding was determined using HRP-conjugated polyclonal goat anti-mouse IgG antibody (Jackson Immunoresearch Laboratories, West Grove, Pa.). […] Optical densities were measured at 490 nm using a Spectramax microplate reader. […] The half maximal effective concentration (EC50) for each antibody was calculated using a non-linear regression analysis carried out on periodate subtracted data.

[2] = Glycan array STn specificity and anti-STn antibody group; set-up: key to Group: Group 1 antibodies according to the invention are antibodies capable of binding AcSTn and GcSTn; Antibodies were assigned to Group 2 based on their ability to bind STn as well as some related structures that include an O-linkage to serine or threonine; Group 3 antibodies are antibodies capable of binding STn, but may also bind a broader set of related structures; Group 4 antibodies are capable of binding to both AcSTn and GcSTn as well as the un-sialylated Tn antigen
Method: (§1) Optimized glycan arrays comprise 71 chemically synthesized and well-defined glycans, most of which comprise Neu5Ac and Neu5Gc glycan pairs.
(§2) 300 ml of epoxy blocking buffer is prepared by combining 15 ml of 2 M Tris buffer (pH 8) with 0.9 ml of 16.6 M ethanolamine and 284.1 ml of distilled water. The solution is filtered using a […] nitrocellulose membrane. The epoxy buffer solution as well as 1 L of distilled water are pre-warmed to 50° C. Glass slides are arranged in a slide holder and quickly submerged in a staining tub with the warmed epoxy blocking buffer. Slides are incubated in the epoxy blocking buffer for 1 hour at 50° C. with periodic shaking to deactivate epoxy binding sites. Next, slides are rinsed and blocked with PBS with 1% OVA at 25° C. for one hour. Serum samples are diluted 1:1000 in PBS with 1% OVA and added to the glycan array for one hour at 25° C. After extensive washing, binding of polyclonal serum antibodies are detected by incubating glycan microarray slides with Cy3-conjugated anti-mouse IgG (Jackson Immunoresearch, West Grove, Pa.) for one hour. Slides are then washed extensively, dried and scanned with a Genepix 4000B scanner (Laser at 100%; gain at 350; 10 μm pixels). Raw data from scanned images are extracted using the Genepix software and analysis of raw data is carried out.
Based on characterization data, anti-STn antibodies developed from Group 6 and Group 8 mice were categorized by anti-STn group number. In some cases, antibodies were assigned to Group 1. Group 1 antibodies according to the invention are antibodies capable of binding AcSTn and GcSTn. Such antibodies may have the ability to associate with a wider range of STn structures. The large oval in FIG. 1A indicates the portion of STn recognized by Group 1 antibodies. […] Also listed in the Table is the antibody Isotype for each antibody as determined by the IsoStrip mouse monoclonal antibody isotyping kit (Roche Diagnostics GmbH, Manheim, Germany).

[3] = Glycan microarray analysis, 9-O-acetylated GcSTn
Method: as §1
as §2, with “Slides are then washed extensively, dried and scanned with a Genepix 4000B scanner (Laser at 100%; gain at 350; 10 μm pixels). Raw data from scanned images are extracted using the Genepix software and analysis of raw data is carried out.” left out
18D2 and 18C7 clones were expanded and binding properties of these hybridomas were determined by glycan microarray analysis according to Example 4. […] No binding to Tn antigen or other glycans was detected.

B1: 18D2: anti-STn monoclonal antibody from mouse #4436; IgG2b κ; heavy chain SEQ ID NO 1, light chains SEQ ID NO 2 and 3 (antibody, V domains shown)
VH: QVTLKESGPGILQPSQTLSLTCSFSGFSLSTSNMGIGWIRQPSGKGLEWLAHIWWHDDKYYNPSLKSRLTISKDISNNQVFLKITSVDTADTATYYCAQVPFYYGTSFDVWGTGTTVTVSS
VL 1: DIVMTQSPATLSVTPGDRVSLSCRASQSISDYLHWYQQKSHESPRLLIKYASQSISGIPSRFSGSGSGSDFTLSINSVEPEDVGVYYCQNGHSFPLTFGAGTKLELK
VL 2: QIVLTQSPAIMSASPGETVTMTCSASSSITYMHWYQQKPGTSPKRWIYDTSKLASGVPARFSGSGSGTSYSLTISSMEAEDAATYYCHQRSSYTFGGGTKLEIKR
binding to periodate-treated wells ([1]; BSM ELISA, sodium periodate treated wells): did not bind
EC50 ([1]; non-linear regression on periodate subtracted data, 7-point 1:5 dilution from 100 nM): 6.3 nM
Glycan Array STn Specificity [2]: 100%
Group ([2]; assigned from flow cytometry and glycan array analysis): 1
mean fluorescence intensity, Neu5,9Ac5Gc-α2,6-GalNAc [3]: about 4,000
